According to a protein production outcome set (Wang et al. 2014):

Assay: label from the status in PepcDB records

Sequence	protein production
MTKRFKLKISRILSFKSCRLKDPSSLPFNPVSSSLRRTSPLVNSSADVTTVPQRRRSSFRLHVLTVFGCGRSSTPLDVDLRNSPVLSPPQTPTFQWESEGKWHVIAQVTEEEYETPRRKIYNGGSEKDNRRRLKKKEKSNSRRRGSISSAEEETDRESLLPSSTNLSPEYSSSELPRVTRRPRQLLKKAVIEEESESSSPPPSPARLSSFVQRLMPCTMAAAVMVEGVAVVKKSEDPYEDFKGSMMEMIVEKKMFEVAELEQLLSCFLSLNAKRHHRAIVRAFSEIWVALFSGGSGGGRRSSSFSSVRLSDYDEC	failed
MTKTAKVNDIVRDWVVLDAKDKVFGRLITEIAVLLRGKHRPFYTPNVDCGDFVVVINANKVKFSGMKLEDKEYFTHSGYFGSTKSKTLQEMLEKAPEKLYHLAVRGMLPKTKLGKAMIKKLKVYRDDKHPHTAQTSKKDAK	failed
MTKVIAITGKGGTGKTAVAALLIRSLSKKGQFILAVDADADTNLPETLGCENVKTIGDAKEFLQAEITKPRPDNPDMNKESVLQSKVYEIIEEMPGYDLLVMGRPEGSGCYCYVNNLLRGIMDKLVKNYDLVVIDAEAGLEHFSRKIIRDIDDLIVVTDASRRGFRTAERIHELVNELESNIGSIHVIANKVTDANREKLVKLAEELKLNLIGMIPLDPKIEEMDIKGIPLFEIPDDSVAAVEIENIVKKLGF	failed
MTKYLKYFIISMFRSRGLIFFGLFLILLSLIPNMLSISDSAHYSLKVLNHASRWYGLAILISFSIVSGTLAQMIYFSSSAIIYLHRHSKLSINRYYFESTLGAMVIFGIYALIILFATIVGYSYVSKNIIFPKKLLMLVLFTMLAGLFYFSLSFSLQAIATLLKKAHLIEYLAYFLISLTFLLGYLQVNTSLDVSLLVFLSPLNSILSLLIYGYSGILSFSVEFLLVTSLFYITVLQLISVWSLKRLKEVRIEDKLI	failed
MTLATATNEHLANISNTLIYSAMAVYTLAFFAYIAEWLFGSRSKVGRTAAALTHKTAAKAPAVTVKSAGGTAVLDRPQVVTRSAPGARDVPDGPGAHGGDEQGDLYGRIAVSLTVLAFAVEAAGVVARALSVQRAPWGNMYEFNITFSTVAVGVYLALLALKKNIRWLGLPLVTTVLLDLGLAVTVLYTASDQLVPALHSYWLYIHVSTAILCGAVFYVGAVGALLYLFKDSYENKLATGGQPGRFATSVMERLPASASLDKFSYRVNAAVFPLWTFTIIAGAIWAGDAWGRYWGWDPKETWAFITWVAYACYLHARATAGWKGRKAAYIALIAFACWLFNYYGVNIFVSGKHSYAGV	failed
MTLIPTDLSASRLSDAVRDPNREIAASSRVIDLSVGIVVCIPCFRRPQHLRLTLESLASQRTPRSFAVVMVENDAARRESAPVAAEYLADGRLQGICLVEQRQGNCQAINAAFETAQALFPAATRFLMIDDDEIASPDWLELMVRTAEATGADVVGGPVLPDFDDDSQPWLSRHPAFRPAYDYSGAVPLIYGCGNCLITRAAFDRLGSPAFDLRFNFLGGGDCDFFVRCRDAGMTFHWTTEAVITETVPQSRTSLGWIAKRGLRIGAINYRVQHKAAQGAAARVRVFAQMLGRLPLSLLRAARLLATSKAVVAMHPVMVALGSLLAALGIEPKPYEASKIVS	failed
MTLMCSIAGIYLAKLPYANIIGALVLALLLGILMQLAPEKMRKEASSGMSFISNKFLRLGIILLGFRLDLEKLAAAGVKTILVAALAVAGTITLTYWLSRKFGAEDELAFLSACGCGVCGAAAVMGVSPQITAASEERKRENEVLAVAVVCVMGTVFTLLEIGLKPVLGLTDSQFGIVAGGSLHEIAHAVASGGAFGNISLDSALIMKLSRVILLAPVALIIGYLYQRRTAKVSTIDSTTKTGKLPIPWFLGGFILTSVLGTYLPFSTSLLDALVQVAYIFLGMAMAALGISVNFKVIFKRGGAVFGAAAISSTCLLIFMIIMSKLFF	failed
MTLRAARPEFLDLFPAGAEARRLADGFTWTEGPVYVPARSAVIFSDVRQNRTWAWSDDGQLSPEMHPSHHQNGHCLNKQGHLIACSHGLRRLERQREPGGEWESIADSFEGKKLNSPNDVCLAPDGSLWFSDPTYGIDKPEEGYGGEMELPGRWVFRLAPDGTLSAPIRDRVKPNGLAFLPSGNLLVSDTGDNATHRYCLNARGETEYQGVHFTVEPGKTDGLRVDAGGLIWASAGDGVHVLTPDGDELGRVLTPQTTSNLCFGGPEGRTLYMTVSTEFWSIETNVRG	failed
MTLTIPNAPGSSGYLDMFPERRMSYFGNSYILGLTVTAGIGGLLFGYDTGVISGALLYIKDDFEVVKQSSFLQVYNVSSFTSSKLETIVSMALVGAMIGAAAGGWINDYYGRKKATLFADVVFAAGAIVMAAAPDPYVLISGRLLVGLGVGVASVTAPVYIAEASPSEVRGGLVSTNVLMITGGQFLSYLVNSAFTQVPGTWRWMLGVSGVPAVIQFILMLFMPESPRWLFMKNRKAEAIQVLARTYDISRLEDEIDHLSAAEEEEKQRKRTVGYLDVFRSKELRLAFLAGAGLQAFQQFTGINTVMYYSPTIVQMAGFHSNQLALFLSLIVAAMNAAGTVVGIYFIDHCGRKKLALSSLFGVIISLLILSVSFFKQSETSSDGGLYGWLAVLGLALYIVFFAPGMGPVPWTVNSEIYPQQYRGICGGMSATVNWISNLIVAQTFLTIAEAAGTGMTFLILAGIAVLAVIFVIVFVPETQGLTFSEVEQIWKERAYGNISGWGSSSDSNNMEGLLEQGSQS	not failed
MTLTMGFIGFGKSANRYHLPYLKTRNNIKVKTIFVRQINEELAAPYEERGVYFTTDLDELLNDKEIQVVTICTPAHTHYELAKKVILAGKSVIVEKPFCDTVEHAKELLALGREKGVVVMPYQNRRFDGDFLAVKQVVEQGFLGDIIEIESHIDYFRPGSITHEAPKEEGSFYSLGIHTMDRMISLFGRPNTVTYDIRNNEVEGAVDNYFDVGLHYGNQLKIKLKTNHIVAKDYPRFIVHGTNGSFIKYGEDQQENDLKAGIMPESAGFGEDSPMYYGIAKYRNANGDWIEKQIKTPLGDYGRFYDAAYDTIVNGAPKLVKDEEAVTNIEILENGFAAPSPSVYKLEALHLNELEHHHHHH	not failed
MTLVRMTEKLLSPLHTRPWPERWLTRVLGAALASAAYLLCLPWDLNNRAPSPGAVEETTPVTGVGVVALAVILLALAAYFGHRDSLGWPVLLVAVPPAALLYVSLRTHPGPPDGFAGVWPLVWGFFTLLIGVGVLVAAAVAREFRADLVDEELSLAHRR	failed
MTLVSVVLPVYQGAPWIRGALDCLAAQTHRPLEILVVDDASSDGTPAVVEDWRARHPDLSVRLIVRPENGGPGVARNDALALARGAYVAFLDADDRCVPWRLARQLARLEAEPGLGSVGAWYDMVDADGTPVAARRLSVTAGEMAWAALIHPPFLLSTLMTRRALCRPGIFAPRHQGEDAPAQRRLLWQAPAAMIEEVLVTYRTDPHRPQDPRMGVAMAEDLAPLTGPLSAAEAWALHDALLAFPNRVTPAAIAAVSGLFTLLGVFRGLRPAWMTRPEYNRLFEGYLDLAAPFLAAHGESLLAPPSPQAPRVAPWMGPWEAEWRAGEARSDRPRPKEIFPPVGGDSPSKLSG	failed
MTLVVPFDGSELAEAALVRAAEFGTVFEEDVLAVSVIRNGNAKYAREHDWIGPNEDFDLEAVVTSLHEQVIDLCPSSDFRHTVVDRYAPAGAVAKAIRKLAKREDASMVFIGSENAGHLVTSISSVGGSIASDDAYDVVIVRHRNPSKIAKLRNTSPHRQSKSDFYLPE	failed
MTLYTNDYLEFYLTLVGWLINNGIWDMISDTGLFALPFLIIVVREWIKVRQEGADEGNKGVLSLARIETQLYIGYVVVSLCAIPVMSVGFDTLQFDQTRAKQCQVLLPAPGDTGWNTTFSSLTGKSARIPIWWAVMHSLSKGLNSGAVAAIPCGTDLRQMRMDVDAIRIDNPLLAQEVADFTHDCFGPSRARLFMRQPDLGAITKDPKTLQDLNWIGSRFLLNTSGYYDTDYSKTPRTAWPYDAKRDDGLPQVTGGGGYPTCKQWWSDGSIGLRDRLQAQVDPTLMNKLLGWAKWLSKDEVTDSMIRQVVSPSSQVNGDVYSDYGGQIGGTMWNGLARAGGTLGVGVGSLAYFPGMDIVRQALPMVMAFLKMAMVICLPLVLIIGAYQLKVAMTMSVVFFALIFVDFWFQLARWVDSTIIDVLYGSGSPHLSFDPVMGLNTTTQDAILNFVMGAMFIILPLFWMSALAWAGVQVSGVLEGLSRGTQSVERAGASGGGIAQQAVGSIGGKS	failed
MTMADETIILNVLGQYTRAHDRRDPDAMAALFAPEATIEIVDAVGGASRSISRLEGRDAIRVAVRQMMAPHGYRAWSQNVVNAPIIVIEGDHAVLDAQFMVFSILAAEVPDGGWPTGTFGAQGRIVPIEAGQYRLTLRTVADGWVISAMRIEHRLPMAFG	not failed
MTMDGDSSTTDASQLGISADYIGGSHYVIQPHDDTEDSMNDHEDTNGSKESFREQDIYLPIANVARIMKNAIPQTGKIAKDAKECVQECVSEFISFITSEASERCHQEKRKTINGEDILFAMSTLGFDSYVEPLKLYLQKFREAMKGEKGIGGAVTATDGLSEELTEEAFTNQLPAGLITTDGQQQNVMVYTTSYQQISGVQQIQFS	failed
MTMNPLPLQKEAEKRSPRLNSPFKSLMRIHWWMALAYLIVFCTGTLMVNLERGQFLRSELYDFHKSIGILTMALLTWRIFTLLQVWWRKYTKRPPKLSLAWWRTFTLHLSLYVFMGVIPISGFLLSNSFKANNVRFFSITLPDIFPQNEAMVEIGRNAHFWLAYTFLIFIFIHMLTYWKVIRANWRRWVNFIGKFQQQT	failed
MTMTLHTKASGMALLHQIQGNELEPLNRPQLKIPLERPLGEVYLDSSKPAVYNYPEGAAYEFNAAAAANAQVYGQTGLPYGPGSEAAAFGSNGLGGFPPLNSVSPSPLMLLHPPPQLSPFLQPHGQQVPYYLENEPSGYTVREAGPPAFYRPNSDNRRQGGRERLASTNDKGSMAMESAKETRYCAVCNDYASGYHYGVWSCEGCKAFFKRSIQGHNDYMCPATNQCTIDKNRRKSCQACRLRKCYEVGMMKGGIRKDRRGGRMLKHKRQRDDGEGRGEVGSAGDMRAANLWPSPLMIKRSKKNSLALSLTADQMVSALLDAEPPILYSEYDPTRPFSEASMMGLLTNLADRELVHMINWAKRVPGFVDLTLHDQVHLLECAWLEILMIGLVWRSMEHPVKLLFAPNLLLDRNQGKCVEGMVEIFDMLLATSSRFRMMNLQGEEFVCLKSIILLNSGVYTFLSSTLKSLEEKDHIHRVLDKITDTLIHLMAKAGLTLQQQHQRLAQLLLILSHIRHMSNKGMEHLYSMKCKNVVPLYDLLLEMLDAHRLHAPTSRGGASVEETDQSHLATAGSTSSHSLQKYYITGEAEGFPATV	not failed
MTNAFSEELALEAAGLDAIFGKDFKAEETTTGHVRWSVPLSHNGVELELAFLLDSAYPLDSEPQVRVTCKEGLSLRAVRELEGHLQKVAAENRGSPSAYLLYTAAQDWIDTHDRREAAEAISATIASTRLSAREPDSAGTGTTFETKAESFTQLVEHETLEHATIDRTLGTPVTPETFAAWKQEFDKYLLENGILDIANNADIELDASQGGWKGNSRRKPTGRELFTMHREMFVDDFEESDQCESTASGACDTQGSELAEHVDASLFLS	failed
MTNDQIKKAKNGTYYFRANLGYDVKGKKIQKYRSGFKTKKEAREEYSRLLLMNPDDLNENKDKMMFEYYINEIFLPWYKTQVKLRTYENRIPTIQKHFPYFYKMAVSDIEPINVQDWQLKMTKNLKPSYVRAVQGLFSVAMDRAIVLGITTTNPSKIIGNVKKVKPKVEFWTKEEFEKVLSLIYKEDYYQNFLFISLWFLFMTGMRIGEATAIQWEDIDFETGVVSITKTLYYKSQIDYKFVEPKTKASVRHIVLDKVTLSYLADWREVQQNVVKTNFVMSYNGIPTQKHTIAHAIDRFSKMAGIHRIKIHALRHSHASLLISMGENPLIIKERLGHEDIETTLGTYGHLYPNSNFEVASKLNGIISFQPAEQNLDSSPKNQFTVNYRQNKQPNSAIKVQ	failed
MTNGKIWLVVKPTVGVPLFLSAAVIASVVIHAAVLTTTTWLPDYYQGSAKVAAE	failed
